Laboratory results taken from publication PMC6283576, “Structural insight into substrate and product binding in an archaeal mevalonate kinase” (PLoS ONE, 2018).

Biological target: the molecule itself
Test: crystal structure; MmMK with mevalonate (2.10 Å) or 5-phosphomevalonate (2.46 Å); space group P2(1)2(1)2(1), two molecules in the asymmetric unit; 100 mM Bis-Tris pH 5.5, sodium potassium tartrate, PEG 8,000 or 10,000

B1: mevalonate kinase from Methanosarcina mazei (enzyme)
chain: MVSCSAPGKIYLFGEHAVVYGETAIACAVELRTRVRAELNDSITIQSQIGRTGLDFEKHPYVSAVIEKMRKSIPINGVFLTVDSDIPVGSGLGSSAAVTIASIGALNELFGFGLSLQEIAKLGHEIEIKVQGAASPTDTYVSTFGGVVTIPERRKLKTPDCGIVIGDTGVFSSTKELVANVRQLRESYPDLIEPLMTSIGKISRIGEQLVLSGDYASIGRLMNVNQGLLDALGVNILELSQLIYSARAAGAFGAKITGAGGGGCMVALTAPEKCNQVAEAVAGAGGKVTITKPTEQGLKVD
notes: mevalonate kinase (MmMK), Methanosarcina mazei; codon-optimized gene cloned into pSKB3 (modified pET28b); also called MmMK; MK; source: E. coli BL21(DE3), purified (Ni-NTA)
- binding result: binds
